Assay results reported in patent US8058396B2, “Cystatin C as an antagonist of TGF-β and methods related thereto” (National Jewish Health, priority 2003, dated 2011).

B1: CystC: full-length human Cystatin C (SEQ ID NO:2), C-terminally Myc- and (His)6-tagged, retrovirally expressed and secreted by the cells (protein, listed as Homo sapiens)
chain: MAGPLRAPLLLLAILAVALAVSPAAGSSPGKPPRLVGGPMDASVEEEGVRRALDFAVGEYNKASNDMYHSRALQVVRARKQIVAGVNYFLDVELGRTTCTKTQPNLDNCPFHDQPHLKRKAFCSFQIYAVPWQGTMTLSKSTCQDA
modifications: C-terminal Myc and His6 tags
B2: Δ14CystC: human CystC with deletion of positions 80 to 93 (conserved cysteine proteinase inhibitor motif), retrovirally expressed and secreted (protein)
chain: MAGPLRAPLLLLAILAVALAVSPAAGSSPGKPPRLVGGPMDASVEEEGVRRALDFAVGEYNKASNDMYHSRALQVVRARLGRTTCTKTQPNLDNCPFHDQPHLKRKAFCSFQIYAVPWQGTMTLSKSTCQDA
modifications: left off: small tags and cut ends

Tests used:
[1] = system: HT1080 fibrosarcoma cells; assay: HT1080 cell invasion through Matrigel matrices; assay type: cell-based, human; settings: retroviral expression in HT1080 cells; 48 hr; relative to GFP-expressing cells; p<0.05
Procedure: The effect CystC and D14CystC on the invasion of HT1080 and 3T3-L1 cells was determined as described previously (42). Briefly, upper chambers were coated with 100 μl of diluted Matrigel (1:50 in serum-free media), which was allowed to evaporate to dryness overnight at room temperature. The following morning the Matrigel mixtures were rehydrated and subsequently cultured with control-, CystC-, or D14CystC-expressing HT1080 or 3T3-L1 cells at a density of 100,000 cells/chamber. Cellular invasion was stimulated by addition of 2% serum to the lower chambers. Forty-eight hr later, the cells were washed twice in ice-cold PBS and immediately fixed for 15 min with 95% ethanol. Cells remaining in the upper chambers were removed with a cotton swab, whereas those remaining in the lower chamber were stained with crystal violet. Quantifying invading cells was determined through two independent measures, which yielded identical results: (i) manual counting under a light microscope, and (ii) crystal violet dye extraction by incubation of the membranes in 10% acetic acid, followed by spectrophotometry at 590 nm.
Cathepsin B is a lysosomal cysteine proteinase that functions in intracellular protein catabolism, as well as in bone resorption, hormone activation, and antigen processing (5). During tumorigenesis, cancer cells express a cathepsin B splice variant whose protein product is secreted into the extracellular milieu (5) and localized to the leading edge of invasive tumors (19), thereby promoting cancer cell invasion and metastasis. However, recent evidence has questioned the role of intracellular versus extracellular cathepsin B in promoting cancer cell invasion (20). To distinguish between these two possibilities, human HT1080 fibrosarcoma cells that stably express the murine ecotropic receptor (21) were infected with control (i.e., GFP), CystC, or Δ14CystC retrovirus. Afterward, cells that expressed GFP were isolated by flow cytometry to establish stable polyclonal populations of control-, CystC-, and Δ14CystC-expressing HT1080 cells (data not shown). The inventor chose to study HT1080 cells because they are highly invasive, and because they express large quantities of secreted cathepsin B and comparably little CystC (22). Thus, if extracellular cathepsin B mediates HT1080 cell invasion, it was hypothesized that overexpression of secreted CystC would attenuate their invasion through synthetic basement membranes.
Briefly, GFP-, CystC-, or Δ14CystC-expressing HT0180 cells were allowed to invade through Matrigel-coated membranes for 48 hr. Data shown in FIG. 1A are the mean (±SE) of three (Δ14CystC) and nine (GFP and CystC) independent experiments presented as the percent invasion relative to GFP-expressing HT1080 cells (***, p<0.05; Student's T-Test).

[2] = system: NMuMG mammary epithelial cells; assay: TGF-β-stimulated actin cytoskeletal reorganization (EMT) in NMuMG cells, rhodamine-phalloidin immunofluorescence; assay type: cell-based, murine; settings: overexpression in NMuMG cells; TGF-β1 5 ng/ml, 8 hours
Procedure: (§1) The ability of TGF-β to alter actin cytoskeletal architecture and E-cadherin expression was monitored essentially as described (Piek et al., 1999). Briefly, control-, CystC-, or Δ14CystC-expressing NMuMG cells were allowed to adhere overnight to glass coverslips in 24-well plates (50,000 cells/well). The cells were stimulated the following day with TGF-β1 (5 ng/ml) for 0-36 hours at 37° C. In some experiments, control NMuMG cells were stimulated with TGF-β1 in the absence or presence of 10 μg/ml of recombinant GST, GST-CystC, or GST-Δ14CystC. Upon completion of agonist stimulation, the cells were washed in ice-cold PBS and immediately fixed in 3.7% formaldehyde. After extensive washing in PBS, the cells were blocked in PBS supplemented with 1.5% FBS, followed by incubation with rhodamine-phalloidin (0.25 μM). […]
(§2) To test this hypothesis, the inventor first examined whether CystC and a CystC mutant impaired in its ability to inhibit cathepsin protease activity (i.e., Δ14CystC) could antagonize TGF-β stimulation of EMT in MECs. […] TGF-β stimulation of EMT is studied routinely in murine NMuMG MECs, which readily undergo EMT when treated with TGF-β (Piek et al., 1999; Miettinen et al., 1994; Gotzmann et al., 2004). […] E-cadherin expression was monitored by indirect immunofluorescence with anti-E-cadherin antibodies.
In another experiment, NMuMG cells were infected with ecotropic retrovirus encoding either GFP (i.e., control), CystC, or Δ14CystC, and subsequently were isolated by FACS-sorting for GFP expression to yield stable polyclonal populations of control, CystC, and Δ14CystC-expressing cells. The expression and secretion of recombinant CystC proteins by infected NMuMG and NRK cells was monitored by immunoblotting conditioned-media with anti-CystC antibodies. […] Next, the control, CystC-, and Δ14CystC-expressing NMuMG cells were incubated in the absence or presence of TGF-β1 (5 ng/ml) for 36 hours, whereupon E-cadherin expression was monitored by immunoblotting with anti-E-Cadherin antibodies. […]

[3] = system: NMuMG mammary epithelial cells; assay: TGF-β-mediated downregulation of E-cadherin in NMuMG cells; assay type: cell-based, murine; settings: overexpression in NMuMG cells; TGF-β1 5 ng/ml, 36 hours
Procedure: as §1
The ability of TGF-β to alter E-cadherin expression also was monitored by immunoprecipitating E-cadherin from Buffer H/1% Triton X-100-solubilized (Schiemann et al., 2003) NMuMG whole cell extracts, followed by immunoblotting with anti-E-cadherin antibodies (1:1000 dilution).
as §2
In another experiment, NMuMG cells were infected with ecotropic retrovirus encoding either GFP (i.e., control), CystC, or Δ14CystC, and subsequently were isolated by FACS-sorting for GFP expression to yield stable polyclonal populations of control, CystC, and Δ14CystC-expressing cells. The expression and secretion of recombinant CystC proteins by infected NMuMG and NRK cells was monitored by immunoblotting conditioned-media with anti-CystC antibodies. […]

| Molecule | HT1080 cell invasion through Matrigel matrices [1] | actin cytoskeletal reorganization stimulated by TGF-β [2] | TGF-β-mediated downregulation of E-cadherin [3] |
| --- | --- | --- | --- |
| B1 | significantly inhibited | prevented | antagonized |
| B2 | failed to affect | prevented | antagonized |
